# Assay results published in US20190233493A1 (Sanofi, published 2019).
# *1 amine or outer side, *2 acyl side, *3 side chain or, on linkers, in order; H or OH if unused. Side-chain parts run from the residue outwards. [ ]: non-standard residue; d: D form. The star is where a group is joined. PEG12 = NCCOCCOCCOCCOCCOCCOCCOCCOCCOCCOCCOCCOCCC(=O)O; γGlu = O=C(O)[C@H](CCC(=O)[*:2])N[*:1]; Stearoyl = CCCCCCCCCCCCCCCCCC(=O)*; Palmitoyl = CCCCCCCCCCCCCCCC(=O)*; Nle = CCCC[C@H](N)C(=O)O; Aib = CC(C)(N)C(=O)O
# T1: RXFP1 receptor (UniProt Q9HBX9 1-757, limits assumed)
# T1 sequence (looked up): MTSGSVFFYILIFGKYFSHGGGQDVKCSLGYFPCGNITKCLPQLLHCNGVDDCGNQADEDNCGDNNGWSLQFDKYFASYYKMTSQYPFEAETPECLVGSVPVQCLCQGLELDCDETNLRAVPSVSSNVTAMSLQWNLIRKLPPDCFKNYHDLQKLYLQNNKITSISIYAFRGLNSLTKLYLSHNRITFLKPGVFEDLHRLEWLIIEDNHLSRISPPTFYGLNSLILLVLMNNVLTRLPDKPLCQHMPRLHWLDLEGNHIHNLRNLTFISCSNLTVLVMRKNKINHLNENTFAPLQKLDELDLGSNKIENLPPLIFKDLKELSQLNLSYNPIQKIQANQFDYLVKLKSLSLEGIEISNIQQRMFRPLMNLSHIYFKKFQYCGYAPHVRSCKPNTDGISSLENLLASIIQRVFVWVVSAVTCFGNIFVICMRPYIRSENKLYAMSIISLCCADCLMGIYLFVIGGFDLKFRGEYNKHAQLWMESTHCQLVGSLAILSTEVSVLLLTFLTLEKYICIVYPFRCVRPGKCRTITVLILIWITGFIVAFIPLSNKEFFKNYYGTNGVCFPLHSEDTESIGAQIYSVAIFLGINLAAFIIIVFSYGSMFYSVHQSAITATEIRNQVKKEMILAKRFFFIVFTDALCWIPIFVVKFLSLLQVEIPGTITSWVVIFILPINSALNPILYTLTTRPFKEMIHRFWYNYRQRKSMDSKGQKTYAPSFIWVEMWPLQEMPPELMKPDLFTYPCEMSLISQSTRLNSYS
# B1: peptide of SEQ ID NO: 33 (peptide)
# peptide: Ac-LEGREKVRAK(Ac)I[Aib][Aib]EG[Nle]STWS[Aib]RKK(Ac)[PEG12]K([γGlu-γGlu-γGlu-Stearoyl])-NH2
# SMILES: CCCCCCCCCCCCCCCCCC(=O)N[C@@H](CCC(=O)N[C@@H](CCC(=O)N[C@@H](CCC(=O)NCCCC[C@H](NC(=O)CCOCCOCCOCCOCCOCCOCCOCCOCCOCCOCCOCCOCCNC(=O)[C@H](CCCCNC(C)=O)NC(=O)[C@H](CCCCN)NC(=O)[C@H](CCCNC(=N)N)NC(=O)C(C)(C)NC(=O)[C@H](CO)NC(=O)[C@H](Cc1c[nH]c2ccccc12)NC(=O)[C@@H](NC(=O)[C@H](CO)NC(=O)[C@H](CCCC)NC(=O)CNC(=O)[C@H](CCC(=O)O)NC(=O)C(C)(C)NC(=O)C(C)(C)NC(=O)[C@@H](NC(=O)[C@H](CCCCNC(C)=O)NC(=O)[C@H](C)NC(=O)[C@H](CCCNC(=N)N)NC(=O)[C@@H](NC(=O)[C@H](CCCCN)NC(=O)[C@H](CCC(=O)O)NC(=O)[C@H](CCCNC(=N)N)NC(=O)CNC(=O)[C@H](CCC(=O)O)NC(=O)[C@H](CC(C)C)NC(C)=O)C(C)C)[C@@H](C)CC)[C@@H](C)O)C(N)=O)C(=O)O)C(=O)O)C(=O)O
# B2: peptide of SEQ ID NO: 4 (peptide)
# peptide: Ac-ELEGREKVRAAI[Aib][Aib]EG[Nle]STWS[Aib]RKK([γGlu-γGlu-Palmitoyl])-NH2
# SMILES: CCCCCCCCCCCCCCCC(=O)N[C@@H](CCC(=O)N[C@@H](CCC(=O)NCCCC[C@H](NC(=O)[C@H](CCCCN)NC(=O)[C@H](CCCNC(=N)N)NC(=O)C(C)(C)NC(=O)[C@H](CO)NC(=O)[C@H](Cc1c[nH]c2ccccc12)NC(=O)[C@@H](NC(=O)[C@H](CO)NC(=O)[C@H](CCCC)NC(=O)CNC(=O)[C@H](CCC(=O)O)NC(=O)C(C)(C)NC(=O)C(C)(C)NC(=O)[C@@H](NC(=O)[C@H](C)NC(=O)[C@H](C)NC(=O)[C@H](CCCNC(=N)N)NC(=O)[C@@H](NC(=O)[C@H](CCCCN)NC(=O)[C@H](CCC(=O)O)NC(=O)[C@H](CCCNC(=N)N)NC(=O)CNC(=O)[C@H](CCC(=O)O)NC(=O)[C@H](CC(C)C)NC(=O)[C@H](CCC(=O)O)NC(C)=O)C(C)C)[C@@H](C)CC)[C@@H](C)O)C(N)=O)C(=O)O)C(=O)O
# B3: peptide of SEQ ID NO: 30 (peptide)
# peptide: Ac-LEGREKVRAQI[Aib][Aib]EG[Nle]STWS[Aib]RK[PEG12]K([γGlu-γGlu-γGlu-Stearoyl])-NH2
# SMILES: CCCCCCCCCCCCCCCCCC(=O)N[C@@H](CCC(=O)N[C@@H](CCC(=O)N[C@@H](CCC(=O)NCCCC[C@H](NC(=O)CCOCCOCCOCCOCCOCCOCCOCCOCCOCCOCCOCCOCCNC(=O)[C@H](CCCCN)NC(=O)[C@H](CCCNC(=N)N)NC(=O)C(C)(C)NC(=O)[C@H](CO)NC(=O)[C@H](Cc1c[nH]c2ccccc12)NC(=O)[C@@H](NC(=O)[C@H](CO)NC(=O)[C@H](CCCC)NC(=O)CNC(=O)[C@H](CCC(=O)O)NC(=O)C(C)(C)NC(=O)C(C)(C)NC(=O)[C@@H](NC(=O)[C@H](CCC(N)=O)NC(=O)[C@H](C)NC(=O)[C@H](CCCNC(=N)N)NC(=O)[C@@H](NC(=O)[C@H](CCCCN)NC(=O)[C@H](CCC(=O)O)NC(=O)[C@H](CCCNC(=N)N)NC(=O)CNC(=O)[C@H](CCC(=O)O)NC(=O)[C@H](CC(C)C)NC(C)=O)C(C)C)[C@@H](C)CC)[C@@H](C)O)C(N)=O)C(=O)O)C(=O)O)C(=O)O
# B4: peptide of SEQ ID NO: 36 (peptide)
# peptide: Ac-LEGREKVR[Aib]K(Ac)I[Aib][Aib]EG[Nle]STWS[Aib]RKK(Ac)[PEG12]K([γGlu-γGlu-γGlu-Stearoyl])-NH2
# SMILES: CCCCCCCCCCCCCCCCCC(=O)N[C@@H](CCC(=O)N[C@@H](CCC(=O)N[C@@H](CCC(=O)NCCCC[C@H](NC(=O)CCOCCOCCOCCOCCOCCOCCOCCOCCOCCOCCOCCOCCNC(=O)[C@H](CCCCNC(C)=O)NC(=O)[C@H](CCCCN)NC(=O)[C@H](CCCNC(=N)N)NC(=O)C(C)(C)NC(=O)[C@H](CO)NC(=O)[C@H](Cc1c[nH]c2ccccc12)NC(=O)[C@@H](NC(=O)[C@H](CO)NC(=O)[C@H](CCCC)NC(=O)CNC(=O)[C@H](CCC(=O)O)NC(=O)C(C)(C)NC(=O)C(C)(C)NC(=O)[C@@H](NC(=O)[C@H](CCCCNC(C)=O)NC(=O)C(C)(C)NC(=O)[C@H](CCCNC(=N)N)NC(=O)[C@@H](NC(=O)[C@H](CCCCN)NC(=O)[C@H](CCC(=O)O)NC(=O)[C@H](CCCNC(=N)N)NC(=O)CNC(=O)[C@H](CCC(=O)O)NC(=O)[C@H](CC(C)C)NC(C)=O)C(C)C)[C@@H](C)CC)[C@@H](C)O)C(N)=O)C(=O)O)C(=O)O)C(=O)O
# B5: peptide of SEQ ID NO: 32 (peptide)
# peptide: Ac-LEGREKVRAK(Ac)I[Aib][Aib]EG[Nle]STWS[Aib]RKK[PEG12]K([γGlu-γGlu-γGlu-Stearoyl])-NH2
# SMILES: CCCCCCCCCCCCCCCCCC(=O)N[C@@H](CCC(=O)N[C@@H](CCC(=O)N[C@@H](CCC(=O)NCCCC[C@H](NC(=O)CCOCCOCCOCCOCCOCCOCCOCCOCCOCCOCCOCCOCCNC(=O)[C@H](CCCCN)NC(=O)[C@H](CCCCN)NC(=O)[C@H](CCCNC(=N)N)NC(=O)C(C)(C)NC(=O)[C@H](CO)NC(=O)[C@H](Cc1c[nH]c2ccccc12)NC(=O)[C@@H](NC(=O)[C@H](CO)NC(=O)[C@H](CCCC)NC(=O)CNC(=O)[C@H](CCC(=O)O)NC(=O)C(C)(C)NC(=O)C(C)(C)NC(=O)[C@@H](NC(=O)[C@H](CCCCNC(C)=O)NC(=O)[C@H](C)NC(=O)[C@H](CCCNC(=N)N)NC(=O)[C@@H](NC(=O)[C@H](CCCCN)NC(=O)[C@H](CCC(=O)O)NC(=O)[C@H](CCCNC(=N)N)NC(=O)CNC(=O)[C@H](CCC(=O)O)NC(=O)[C@H](CC(C)C)NC(C)=O)C(C)C)[C@@H](C)CC)[C@@H](C)O)C(N)=O)C(=O)O)C(=O)O)C(=O)O
# B6: peptide of SEQ ID NO: 31 (peptide)
# peptide: Ac-LEGREKVRAQI[Aib][Aib]EG[Nle]STWS[Aib]RKK[PEG12]K([γGlu-γGlu-γGlu-Stearoyl])-NH2
# SMILES: CCCCCCCCCCCCCCCCCC(=O)N[C@@H](CCC(=O)N[C@@H](CCC(=O)N[C@@H](CCC(=O)NCCCC[C@H](NC(=O)CCOCCOCCOCCOCCOCCOCCOCCOCCOCCOCCOCCOCCNC(=O)[C@H](CCCCN)NC(=O)[C@H](CCCCN)NC(=O)[C@H](CCCNC(=N)N)NC(=O)C(C)(C)NC(=O)[C@H](CO)NC(=O)[C@H](Cc1c[nH]c2ccccc12)NC(=O)[C@@H](NC(=O)[C@H](CO)NC(=O)[C@H](CCCC)NC(=O)CNC(=O)[C@H](CCC(=O)O)NC(=O)C(C)(C)NC(=O)C(C)(C)NC(=O)[C@@H](NC(=O)[C@H](CCC(N)=O)NC(=O)[C@H](C)NC(=O)[C@H](CCCNC(=N)N)NC(=O)[C@@H](NC(=O)[C@H](CCCCN)NC(=O)[C@H](CCC(=O)O)NC(=O)[C@H](CCCNC(=N)N)NC(=O)CNC(=O)[C@H](CCC(=O)O)NC(=O)[C@H](CC(C)C)NC(C)=O)C(C)C)[C@@H](C)CC)[C@@H](C)O)C(N)=O)C(=O)O)C(=O)O)C(=O)O
# B7: peptide of SEQ ID NO: 35 (peptide)
# peptide: Ac-LEGREKVRAK(Ac)I[Aib][Aib]EGMSTWS[Aib]RK[PEG12]K([γGlu-γGlu-γGlu-Stearoyl])-NH2
# SMILES: CCCCCCCCCCCCCCCCCC(=O)N[C@@H](CCC(=O)N[C@@H](CCC(=O)N[C@@H](CCC(=O)NCCCC[C@H](NC(=O)CCOCCOCCOCCOCCOCCOCCOCCOCCOCCOCCOCCOCCNC(=O)[C@H](CCCCN)NC(=O)[C@H](CCCNC(=N)N)NC(=O)C(C)(C)NC(=O)[C@H](CO)NC(=O)[C@H](Cc1c[nH]c2ccccc12)NC(=O)[C@@H](NC(=O)[C@H](CO)NC(=O)[C@H](CCSC)NC(=O)CNC(=O)[C@H](CCC(=O)O)NC(=O)C(C)(C)NC(=O)C(C)(C)NC(=O)[C@@H](NC(=O)[C@H](CCCCNC(C)=O)NC(=O)[C@H](C)NC(=O)[C@H](CCCNC(=N)N)NC(=O)[C@@H](NC(=O)[C@H](CCCCN)NC(=O)[C@H](CCC(=O)O)NC(=O)[C@H](CCCNC(=N)N)NC(=O)CNC(=O)[C@H](CCC(=O)O)NC(=O)[C@H](CC(C)C)NC(C)=O)C(C)C)[C@@H](C)CC)[C@@H](C)O)C(N)=O)C(=O)O)C(=O)O)C(=O)O
# Molecular target: T1, RXFP1 receptor
# Test: cell-based or functional assay
Binder,"EC50 (nM), OVCAR 5 cells (cAMP)","EMax, OVCAR 5 cells (cAMP)"
B1,0.61 nM,100%
B2,31.7 nM,99%
B3,0.92 nM,89%
B4,0.89 nM,84%
B5,1.04 nM,96%
B6,0.71 nM,86%
Ac-LEGREKVRAK(Ac)I[Aib][Aib]EG[Nle]STWS[Aib]RK[PEG12]K([γGlu-γGlu-γGlu-Stearoyl])-NH2 [peptide of SEQ ID NO: 34],4.73 nM,95%
B7,1.69 nM,95%
